The values that follow come from patent US20210340238A1, “TGFß1 INHIBITORS AND USE THEREOF” (Scholar Rock, Inc., priority 2018, published 2021).

Series [1] has as its system TGFβ downstream tonic signaling. The series can be described thus: TGFβ downstream tonic signaling in non-diseased rat BAL. The series is classed as in vivo.
The conditions of series [2]: rat, in vivo.
Procedure: Animals receiving pan-TGFβ antibody were dosed once intravenously (at day 1) at a volume of 10 mL/kg and sacrificed at day 8 and necropsies performed. […] Animals receiving LY2109761 were dosed by oral gavage once daily for five or seven days. Animals were sacrificed and necropsies performed.
The conditions of series [3]: in vivo, cited from earlier work.

For the molecule `c1ccc(-c2nn3c(c2-c2ccnc4cc(OCCN5CCOCC5)ccc24)CCC3)nc1` [LY2109761], the “Effect on TGFβ downstream tonic signaling” value in series [1] was “inhibit TGFβ downstream tonic signaling in non-diseased rat BAL”. Moreover, in series [2], the Bone findings result is “macroscopic abnormally shaped sternum and microscopic increased thickness of the hypertrophic zone in the endplate of the sternum and physis of the femur and tibia”.
With “GC1008: human analog of 1D11, pan-TGFβ antibody Fresolimumab (GC1008)”, in series [3] (human), the “Exposure: DN Cmax” value is “DN Cmax~(350 ng/mL)mg (ng/mL)mg” and the “Exposure: Half-life” value is recorded as “Half-life: 21.7 d”. The “Previously reported adverse events in human patients (CTCAE grade)” value in series [3] was “leukocytosis (grade 3), fatigue (grade 3), hypoxia (grade 3), asystole (grade 5), leukopenia (grade 1), recurrent, transient, tender erythematous, nodular skin lesions, suppurative dermatitis, and herpes zoster”.
